The target in this test is CH848 Env trimer expressed on the cell surface of CHO cells (HIV-1 (clade C, individual CH848, …)). Put plainly: flow cytometry on CHO cells expressing CH848 Env. A general note: A flow cytometer gives signals particle by particle.

B1: DH270.IA4 (antibody, V domains shown)
VH: QVQLVQSGAEVKKPGASVKVSCKASGYTFTDYYIHWVRQAPGQGLEWMGWINPNTGRTNYAQKFQGRVTMTRDTSISTAYMELSRLRSDDTAVYYCARGGWIGLYYDSSGYPNFDYWGQGTLVTVSS
VL: QSALTQPASVSGSPGQSITISCTGTSYDVGSYNLVSWYQQHPGKAPKLMIYEVSKRPSGVSNRFSGSKSGNTASLTISGLQAEDEADYYCCSYAGSSTVIFGGGTKLTVL
notes: also called DH270_I4
B1: the binding result is given as “no binding (tested: 5 ug/mL)”.

The record behind these values is US20200113997A1 (published 2020).
